Test results published in paper PMC6933062 (Annals of Laboratory Medicine, 2019).
Substitutions are numbered along the chain they refer to. Each block holds one binder with its values, some of them ahead of it. Ends that are not written are not given here. * marks the point of attachment. Biotin = O=C1N[C@H]2[C@H](CS[C@H]2CCCCC(=O)*)N1; Ttds = NCCCOCCOCCOCCCNC(=O)CCC(=O)*

Biological target: T1, biotinylated synthetic peptide containing the PDZ-binding motif of cadherin-related 23 …
T1 peptide: {Biotin-Ttds}-VIMESPLEITEL
Assay: BLI

Kd: 37.6 ± 4.1 µM
B1: wild-type PDZ2 domain of harmonin (domain or fragment)
chain: GGLGSPGNRTTKEKKVFISLVGSRGLGCSISSGPIQKPGIFVSHVKPGSLSAEVGLETGDQIVEVNGIDFTNLDHKEAVNVLKSSRSLTISIVAGAGRE

Kd: 621 ± 88 µM
B2: variant PDZ2 domain of harmonin carrying p.Gly223Cys (domain or fragment)
chain: B1 chain with G27C
